# Assay results from IntAct's records for PubMed 15901771.
# B1: Potassium voltage-gated channel protein eag (Drosophila melanogaster (Fruit fly)), Q02280 (parent)
# chain: MPGGRRGLVAPQNTFLENIIRRSNSQPDSSFLLANAQIVDFPIVYCNESFCKISGYNRAEVMQKSCRYVCGFMYGELTDKETVGRLEYTLENQQQDQFEILLYKKNNLQCGCALSQFGKAQTQETPLWLLLQVAPIRNERDLVVLFLLTFRDITALKQPIDSEDTKGVLGLSKFAKLARSVTRSRQFSAHLPTLKDPTKQSNLAHMMSLSADIMPQYRQEAPKTPPHILLHYCAFKAIWDWVILCLTFYTAIMVPYNVAFKNKTSEDVSLLVVDSIVDVIFFIDIVLNFHTTFVGPGGEVVSDPKVIRMNYLKSWFIIDLLSCLPYDVFNAFDRDEDGIGSLFSALKVVRLLRLGRVVRKLDRYLEYGAAMLILLLCFYMLVAHWLACIWYSIGRSDADNGIQYSWLWKLANVTQSPYSYIWSNDTGPELVNGPSRKSMYVTALYFTMTCMTSVGFGNVAAETDNEKVFTICMMIIAALLYATIFGHVTTIIQQMTSATAKYHDMLNNVREFMKLHEVPKALSERVMDYVVSTWAMTKGLDTEKVLNYCPKDMKADICVHLNRKVFNEHPAFRLASDGCLRALAMHFMMSHSAPGDLLYHTGESIDSLCFIVTGSLEVIQDDEVVAILGKGDVFGDQFWKDSAVGQSAANVRALTYCDLHAIKRDKLLEVLDFYSAFANSFARNLVLTYNLRHRLIFRKVADVKREKELAERRKNEPQLPQNQDHLVRKIFSKFRRTPQVQAGSKELVGGSGQSDVEKGDGEVERTKVFPKAPKLQASQATLARQDTIDEGGEVDSSPPSRDSRVVIEGAAVSSATVGPSPPVATTSSAAAGAGVSGGPGSGGTVVAIVTKADRNLALERERQIEMASSRATTSDTYDTGLRETPPTLAQRDLIATVLDMKVDVRLELQRMQQRIGRIEDLLGELVKRLAPGAGSGGNAPDNSSGQTTPGDEICAGCGAGGGGTPTTQAPPTSAVTSPVDTVITISSPGASGSGSGTGAGAGSAVAGAGGAGLLNPGATVVSSAGGNGLGPLMLKKRRSKSRKAPAPPKQTLASTAGTATAAPAGVAGSGMTSSAPASADQQQQHQSTADQSPTTPGAELLHLRLLEEDFTAAQLPSTSSGGAGGGGGSGSGATPTTPPPTTAGGSGSGTPTSTTATTTPTGSGTATRGKLDFL
# partner: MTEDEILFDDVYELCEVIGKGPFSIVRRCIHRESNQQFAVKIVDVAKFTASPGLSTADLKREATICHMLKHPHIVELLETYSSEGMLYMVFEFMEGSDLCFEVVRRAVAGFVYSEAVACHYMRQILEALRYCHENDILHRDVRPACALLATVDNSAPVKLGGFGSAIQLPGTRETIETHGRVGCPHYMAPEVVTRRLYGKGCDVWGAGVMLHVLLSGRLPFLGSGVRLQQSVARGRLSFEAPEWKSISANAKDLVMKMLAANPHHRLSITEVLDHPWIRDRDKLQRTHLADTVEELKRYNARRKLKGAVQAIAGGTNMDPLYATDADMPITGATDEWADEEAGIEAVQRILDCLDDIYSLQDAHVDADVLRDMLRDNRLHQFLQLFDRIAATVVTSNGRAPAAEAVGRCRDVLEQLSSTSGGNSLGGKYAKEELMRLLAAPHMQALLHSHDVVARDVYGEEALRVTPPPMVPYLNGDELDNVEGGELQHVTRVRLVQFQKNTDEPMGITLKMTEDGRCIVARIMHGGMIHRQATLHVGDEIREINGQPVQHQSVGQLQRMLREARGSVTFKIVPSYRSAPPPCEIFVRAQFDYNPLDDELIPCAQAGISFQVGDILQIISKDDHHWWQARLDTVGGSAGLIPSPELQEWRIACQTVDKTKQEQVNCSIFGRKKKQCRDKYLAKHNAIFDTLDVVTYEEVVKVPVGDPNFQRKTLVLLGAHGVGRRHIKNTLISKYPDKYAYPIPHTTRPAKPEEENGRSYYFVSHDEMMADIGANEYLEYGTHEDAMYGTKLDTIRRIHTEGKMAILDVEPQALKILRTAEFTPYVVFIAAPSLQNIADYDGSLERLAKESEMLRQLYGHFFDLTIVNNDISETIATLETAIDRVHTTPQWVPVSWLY
# Variants of: B1
# Conditions: with cskp_drome CASK
row,effect of a mutation on the interaction,Variant
1,decreasing interaction,K1040M
2,decreasing interaction,R1037L
